Results as given in patent US20160279215A1, “NOVEL PEPTIDES AND COMBINATION OF PEPTIDES FOR USE IN IMMUNOTHERAPY AGAINST VARIOUS TUMORS” (immatics biotechnologies GmbH, priority 2015, published 2016).

These binders were tested against T1, HLA-A*02:01 (human) (assay: UV ligand-exchange ELISA (anti-b2m); ++ = exchange yield >=20%).
T1 construct: MHC monomers captured on streptavidin plates; the UV-sensitive peptide is cleaved and exchanged with the test peptide; also called peptide-receptive MHC molecules; MHC class I
Source text: Candidate peptides for T cell based therapies according to the present invention were further tested for their MHC binding capacity (affinity). The individual peptide-MHC complexes were produced by UV-ligand exchange, where a UV-sensitive peptide is cleaved upon UV-irradiation, and exchanged with the peptide of interest as analyzed. Only peptide candidates that can effectively bind and stabilize the peptide-receptive MHC molecules prevent dissociation of the MHC complexes. To determine the yield of the exchange reaction, an ELISA was performed based on the detection of the light chain (β2m) of stabilized MHC complexes. The assay was performed as generally described in Rodenko et al. (Rodenko et al., 2006).
96 well MAXISorp plates (NUNC) were coated over night with 2 ug/ml streptavidin in PBS at room temperature, washed 4× and blocked for 1 h at 37° C. in 2% BSA containing blocking buffer. Refolded HLA-A*02:01/MLA-001 monomers served as standards, covering the range of 15-500 ng/ml. Peptide-MHC monomers of the UV-exchange reaction were diluted 100 fold in blocking buffer. Samples were incubated for 1 h at 37° C., washed four times, incubated with 2 ug/ml HRP conjugated anti-β2m for 1 h at 37° C., washed again and detected with TMB solution that is stopped with […]. Absorption was measured at 450 nm. Candidate peptides that show a high exchange yield (preferably higher than 50%, most preferred higher than 75%) are generally preferred for a generation and production of antibodies or fragments thereof, and/or T cell receptors or fragments thereof, as they show sufficient avidity to the MHC molecules and prevent dissociation of the MHC complexes.

| Binder | peptide exchange yield [%] |
| --- | --- |
| ALSTVTPRI | 20 to 50 |
| HLQEKLQSL | 20 to 50 |
| ALLLRLFTI | 20 to 50 |
| GIINKLVTV | 20 to 50 |
| FLDGRPLTL | 20 to 50 |
| ILQDGQFLV (also called DCAF4L2-001) | 20 to 50 |
| DISKRIQSL | 20 to 50 |
| FLFVDPELV | 20 to 50 |
| GLAEFQENV | 20 to 50 |
| ALLSSVAEA | 20 to 50 |
| ALDSTIAHL | 20 to 50 |
| HLNNDRNPL | 20 to 50 |
| ILTNKVVSV | 20 to 50 |
| GVVPTIQKV (also called GWPTIQKV) | 20 to 50 |
| FIAAVVEKV | 20 to 50 |
| FLFLKEVKV | 20 to 50 |
| ALLEEEEGV (also called MAGEA4-003) | 20 to 50 |
| AIIKEIQTV | 20 to 50 |
| ALYSGDLHAA | 20 to 50 |
| GLEERLYTA | 20 to 50 |
| ALYVQAPTV | 20 to 50 |
| ALVEKGEFAL | 20 to 50 |
| ILHGEVNKV | 20 to 50 |

The remaining lines, values ahead:

| peptide exchange yield [%] | Binder |
| --- | --- |
| 20 to 50 | NIDINNNEL |
| 20 to 50 | LLDAAHASI |
| 20 to 50 | KTASINQNV |
| 20 to 50 | YLYELEHAL |
| 20 to 50 | SVADLAHVL |
| 20 to 50 | LLFPSDVQTL |
| 20 to 50 | QIADIVTSV |
| 20 to 50 | LLTGVFAQL |
| 20 to 50 | KMASKVTQV |
| 20 to 50 | SLIEESEEL |
| 20 to 50 | TLLEGISRA (also called CABY-001) |
| 20 to 50 | KVFELDLVTL |
| 20 to 50 | NMADGQLHQV |
| 20 to 50 | SLMEKNQSL |
| 20 to 50 | KLIYKDLVSV |
| 20 to 50 | TLYQGLPAEV |

| peptide exchange yield [%] | Binder |
| --- | --- |
| 20 to 50 | NLLIDDKGTIKL |
| 20 to 50 | SLLNQPKAV |
| 20 to 50 | IMLNSVEEI |
| 20 to 50 | KLLEEVQLL |
| 20 to 50 | TLLPSSGLVTL |
| 20 to 50 | QIQGQVSEV |
| 20 to 50 | VLGEEQEGV |
| 20 to 50 | LLLLDVPTA |
| 20 to 50 | TLDSYLKAV (also called CYP4Z-001) |
| 20 to 50 | SILKEDPFL |
| 20 to 50 | VVAAHLAGA |
| 20 to 50 | MTLSEIHAV |
| 20 to 50 | VQSGLRILL |
| 20 to 50 | SILTNISEV |
| 20 to 50 | SLYKSFLQL |
